Numbering of substitutions follows the chain as printed. Names may count otherwise. One block for each binder: values may come before it.
How the values were obtained:
Assay in all cases: cell-based or functional assay
[1] = target: T1, hIL-12 receptor signaling complex (hIL-12Rβ1 and hIL-12Rβ2) (human, UniProt P42701 24-662; Q99665 24-862)
[2] = target: T1, hIL-12 receptor signaling complex …; remark: listed apart in the source
[3] = target: T1, hIL-12 receptor signaling complex …; remark: listed apart in the source
[4] = target: T1, hIL-12 receptor signaling complex …; remark: listed apart in the source

T1 sequence (Q99665 24-862, chain 2 of 2, other chains not shown): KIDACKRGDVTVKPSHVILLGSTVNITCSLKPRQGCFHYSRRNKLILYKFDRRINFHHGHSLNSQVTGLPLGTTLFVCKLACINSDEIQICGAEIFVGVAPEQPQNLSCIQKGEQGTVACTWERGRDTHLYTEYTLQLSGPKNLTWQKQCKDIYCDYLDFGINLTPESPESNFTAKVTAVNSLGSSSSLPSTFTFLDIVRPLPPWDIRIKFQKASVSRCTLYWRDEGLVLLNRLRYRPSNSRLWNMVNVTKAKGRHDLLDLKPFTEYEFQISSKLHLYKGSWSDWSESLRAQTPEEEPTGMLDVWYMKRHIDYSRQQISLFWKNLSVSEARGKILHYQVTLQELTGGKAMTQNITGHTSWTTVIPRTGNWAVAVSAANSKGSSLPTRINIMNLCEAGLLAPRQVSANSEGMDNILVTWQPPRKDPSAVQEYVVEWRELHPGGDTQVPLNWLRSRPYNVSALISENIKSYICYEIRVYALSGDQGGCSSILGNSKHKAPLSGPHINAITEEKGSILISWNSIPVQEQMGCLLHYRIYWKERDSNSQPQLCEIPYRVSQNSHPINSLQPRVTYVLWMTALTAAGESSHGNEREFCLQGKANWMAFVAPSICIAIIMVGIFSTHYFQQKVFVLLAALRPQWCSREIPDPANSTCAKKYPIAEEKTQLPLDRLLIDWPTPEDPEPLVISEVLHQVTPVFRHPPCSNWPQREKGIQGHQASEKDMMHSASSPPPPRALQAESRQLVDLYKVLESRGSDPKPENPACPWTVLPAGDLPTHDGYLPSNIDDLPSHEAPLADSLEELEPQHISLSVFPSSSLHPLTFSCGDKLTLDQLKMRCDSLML

B2: human IL12 mutein, hIL-12p40 E81A, F82L with hIL-12p35-8X His (ligand)
chain 1: IWELKKDVYVVELDWYPDAPGEMVVLTCDTPEEDGITWTLDQSSEVLGSGKTLTIQVKALGDAGQYTCHKGGEVLSHSLLLLHKKEDGIWSTDILKDQKEPKNKTFLRCEAKNYSGRFTCWWLTTISTDLTFSVKSSRGSSDPQGVTCGAATLSAERVRGDNKEYEYSVECQEDSACPAAEESLPIEVMVDAVHKLKYENYTSSFFIRDIIKPDPPKNLQLKPLKNSRQVEVSWEYPDTWSTPHSYFSLTFCVQVQGKSKREKKDRVFTDKTSATVICRKNASISVRAQDRYYSSSWSEWASVPCS
chain 2: RNLPVATPDPGMFPCLHHSQNLLRAVSNMLQKARQTLEFYPCTSEEIDHEDITKDKTSTVEACLPLELTKNESCLNSRETSFITNGSCLASRKTSFMMALCLSSIYEDLKMYQVEFKTMNAKLLMDPKRQIFLDQNMLAVIDELMQALNFNSETVPQKSSLEEPDFYKTKIKLCILLHAFRIRAVTIDRVMSYLNASGSHHHHHHHH
pSTAT4 [%+] EC50, CD8+ T Cells [3]: 0.71 nM
pSTAT4 [%+] EC50, CD56hi NK Cells [3]: 1.08 nM
pSTAT4 [%+] Emax, CD8+ T Cells [3]: 80.2 %+
pSTAT4 [%+] Emax, CD56hi NK Cells [3]: 89.1 %+
pSTAT4 [gMFI] EC50, CD8+ T Cells [4]: 3.12 nM
pSTAT4 [gMFI] EC50, CD56hi NK Cells [4]: 7.21 nM
pSTAT4 [gMFI] Emax, CD8+ T Cells [4]: 100000 gMFI
pSTAT4 [gMFI] Emax, CD56hi NK Cells [4]: 31100 gMFI

B3: human IL12 mutein, hIL-12p40 E81A, F82M with hIL-12p35-8X His (ligand)
chain 1: B2 chain 1 with L60M
chain 2: B2 chain 2
pSTAT4 [%+] EC50, CD8+ T Cells [3]: 0.52 nM
pSTAT4 [%+] EC50, CD56hi NK Cells [3]: 0.74 nM
pSTAT4 [%+] Emax, CD8+ T Cells [3]: 82.2 %+
pSTAT4 [%+] Emax, CD56hi NK Cells [3]: 88.1 %+
pSTAT4 [gMFI] EC50, CD8+ T Cells [4]: 2.64 nM
pSTAT4 [gMFI] EC50, CD56hi NK Cells [4]: 4.26 nM
pSTAT4 [gMFI] Emax, CD8+ T Cells [4]: 109000 gMFI
pSTAT4 [gMFI] Emax, CD56hi NK Cells [4]: 32200 gMFI

B4: human IL12 mutein, hIL-12p40 E81A, F82C with hIL-12p35-8X His (ligand)
chain 1: B2 chain 1 with L60C
chain 2: B2 chain 2
pSTAT4 [%+] EC50, CD8+ T Cells [3]: 3.4 nM
pSTAT4 [%+] EC50, CD56hi NK Cells [3]: 5.08 nM
pSTAT4 [%+] Emax, CD8+ T Cells [3]: 79 %+
pSTAT4 [%+] Emax, CD56hi NK Cells [3]: 85.2 %+
pSTAT4 [gMFI] EC50, CD8+ T Cells [4]: 12.7 nM
pSTAT4 [gMFI] EC50, CD56hi NK Cells [4]: 30 nM
pSTAT4 [gMFI] Emax, CD8+ T Cells [4]: 87500 gMFI
pSTAT4 [gMFI] Emax, CD56hi NK Cells [4]: 27000 gMFI

B7: human IL12 mutein, hIL-12p40 E81A, F82P with hIL-12p35-8X His (ligand)
chain 1: B2 chain 1 with L60P
chain 2: B2 chain 2
pSTAT4 [%+] EC50, CD8+ T Cells [3]: 0.71 nM
pSTAT4 [%+] EC50, CD56hi NK Cells [3]: 1.15 nM
pSTAT4 [%+] Emax, CD8+ T Cells [3]: 79.7 %+
pSTAT4 [%+] Emax, CD56hi NK Cells [3]: 87.6 %+
pSTAT4 [gMFI] EC50, CD8+ T Cells [4]: 2.87 nM
pSTAT4 [gMFI] EC50, CD56hi NK Cells [4]: 8.04 nM
pSTAT4 [gMFI] Emax, CD8+ T Cells [4]: 94000 gMFI
pSTAT4 [gMFI] Emax, CD56hi NK Cells [4]: 29600 gMFI

B9: human IL12 mutein, hIL-12p40 E81A, F82H with hIL-12p35-8X His (ligand)
chain 1: B2 chain 1 with L60H
chain 2: B2 chain 2
pSTAT4 [%+] EC50, CD8+ T Cells [3]: 0.55 nM
pSTAT4 [%+] EC50, CD56hi NK Cells [3]: 0.97 nM
pSTAT4 [%+] Emax, CD8+ T Cells [3]: 79.6 %+
pSTAT4 [%+] Emax, CD56hi NK Cells [3]: 89.7 %+
pSTAT4 [gMFI] EC50, CD8+ T Cells [4]: 4.04 nM
pSTAT4 [gMFI] EC50, CD56hi NK Cells [4]: 8.57 nM
pSTAT4 [gMFI] Emax, CD8+ T Cells [4]: 108000 gMFI
pSTAT4 [gMFI] Emax, CD56hi NK Cells [4]: 33500 gMFI

Continued, values first:

IFNy [gMFI] EC50, CD8+ T Cells [1]: 0.21 nM
IFNy [gMFI] EC50, CD56hi NK Cells [1]: 0.73 nM
IFNy [gMFI] Emax, CD8+ T Cells [1]: 11300 gMFI
IFNy [gMFI] Emax, CD56hi NK Cells [1]: 206000 gMFI
IFNy [%+] EC50, CD8+ T Cells [2]: 0.101 nM
IFNy [%+] EC50, CD56hi NK Cells [2]: 0.014 nM
IFNy [%+] Emax, CD8+ T Cells [2]: 69 %+
IFNy [%+] Emax, CD56hi NK Cells [2]: 94.9 %+
B1: human IL12 mutein, hIL-12p40 E81S, F82A with hIL-12p35-8X His (ligand)
chain 1: B2 chain 1 with A59S, L60A
chain 2: B2 chain 2

pSTAT4 [%+] EC50, CD8+ T Cells [3]: 0.01 nM
pSTAT4 [%+] EC50, CD56hi NK Cells [3]: 0.01 nM
pSTAT4 [%+] Emax, CD8+ T Cells [3]: 85 %+
pSTAT4 [%+] Emax, CD56hi NK Cells [3]: 91.4 %+
pSTAT4 [gMFI] EC50, CD8+ T Cells [4]: 0.03 nM
pSTAT4 [gMFI] EC50, CD56hi NK Cells [4]: 0.06 nM
pSTAT4 [gMFI] Emax, CD8+ T Cells [4]: 121000 gMFI
pSTAT4 [gMFI] Emax, CD56hi NK Cells [4]: 37700 gMFI
B5: human IL12 wild type (hIL-12p40 wild type with hIL-12p35-8X His) (ligand)
chain 1: B2 chain 1 with A59E, L60F
chain 2: B2 chain 2

IFNy [gMFI] EC50, CD8+ T Cells [1]: 0.14 nM
IFNy [gMFI] EC50, CD56hi NK Cells [1]: 0.29 nM
IFNy [gMFI] Emax, CD8+ T Cells [1]: 10700 gMFI
IFNy [gMFI] Emax, CD56hi NK Cells [1]: 181000 gMFI
IFNy [%+] EC50, CD8+ T Cells [2]: 0.08 nM
IFNy [%+] EC50, CD56hi NK Cells [2]: 0.01 nM
IFNy [%+] Emax, CD8+ T Cells [2]: 67.4 %+
IFNy [%+] Emax, CD56hi NK Cells [2]: 93.8 %+
B6: human IL12 mutein, hIL-12p40 E81G, F82A with hIL-12p35-8X His (ligand)
chain 1: B2 chain 1 with A59G, L60A
chain 2: B2 chain 2

pSTAT4 [%+] EC50, CD8+ T Cells [3]: 0.29 nM
pSTAT4 [%+] EC50, CD56hi NK Cells [3]: 0.39 nM
pSTAT4 [%+] Emax, CD8+ T Cells [3]: 84.1 %+
pSTAT4 [%+] Emax, CD56hi NK Cells [3]: 88.4 %+
pSTAT4 [gMFI] EC50, CD8+ T Cells [4]: 1.22 nM
pSTAT4 [gMFI] EC50, CD56hi NK Cells [4]: 1.82 nM
pSTAT4 [gMFI] Emax, CD8+ T Cells [4]: 111000 gMFI
pSTAT4 [gMFI] Emax, CD56hi NK Cells [4]: 30700 gMFI
B8: human IL12 mutein, hIL-12p40 E81A, F82W with hIL-12p35-8X His (ligand)
chain 1: B2 chain 1 with L60W
chain 2: B2 chain 2

Reference: patent US20250388640A1 (SYNTHEKINE, published 2025)
